From patent publication US20250313602A1 (NANJING JSIAMA BIOPHARMACEUTICALS, published 2025) come the findings set out here.

Experiment [1] has as its target T1, human IL-2Rα protein (10165-H08H, Sino Biological) (human, UniProt P01589 22-213).
T1 construct: Both are treated as the same protein; also called receptor IL-2Rα protein; CD25
T1 sequence (looked up): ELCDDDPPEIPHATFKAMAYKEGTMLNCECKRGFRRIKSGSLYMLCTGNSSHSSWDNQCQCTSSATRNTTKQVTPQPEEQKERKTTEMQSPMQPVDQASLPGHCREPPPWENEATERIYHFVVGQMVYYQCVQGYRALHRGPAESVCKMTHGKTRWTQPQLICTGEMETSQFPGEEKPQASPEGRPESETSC
Nature of the experiment: ELISA, IL-2Rα coated at 2 µg/ml. Background: An ELISA detects its analyte on a solid surface through an enzyme-linked reagent.

Experiment [2] addresses T2, human IL-2Rβ protein (10696-H05H, Sino Biological) (human, UniProt P14784 27-239).
T2 construct: Both are treated as the same protein; also called receptor IL-2Rβ protein; CD122
T2 sequence (looked up): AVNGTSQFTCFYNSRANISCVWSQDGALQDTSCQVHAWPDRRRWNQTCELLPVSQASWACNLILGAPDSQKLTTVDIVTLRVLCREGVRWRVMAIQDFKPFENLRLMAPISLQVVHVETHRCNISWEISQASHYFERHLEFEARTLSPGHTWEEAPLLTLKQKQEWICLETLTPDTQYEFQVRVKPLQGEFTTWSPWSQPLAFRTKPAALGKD
Nature of the experiment: ELISA, IL-2Rβ coated at 2 µg/ml; reference wild-type IL-2.

B1: IL-2-Fc fusion protein (Fc fusion)
chain: APTSSSTKKTQLQLEHLLLDLQMILNGINNYKNPKLTAMLTFKFYMPKKATELKHLQCLEEELKPLEEVLNLAQSKNFHFDPRDVVSNINVFVLELKGSETTFMCEYADETATIVEFLNRWITFCQSIISTLTGGGGSGGGGSGGGGSEPKSCDKTHTCPPCPAPEAAGGPSVFLFPPKPKDTLYITREPEVTCVVVDVSHEDPEVKFNWYVDGVEVHNAKTKPREEQYNSTYRVVSVLTVLHQDWLNGKEYKCKVSNKALPAPIEKTISKAKGQPREPQVYTLPPSREEMTKNQVSLTCLVKGFYPSDIAVEWESNGQPENNYKTTPPVLDSDGSFFLYSKLTVDKSRWQQGNVFSCSVMHEALHNHYTQKSLSLSPK
B1: in experiment [1], the binding result is “binds”. Also, the “fold improvement of binding capacity compared with wild-type IL-2” value in experiment [2] was 24 times.
